Assay: label from the status in PepcDB records

Row | Sequence | protein production
1 | MYPSSSPGHRQYFLGVKSSLPLLWLMVFPALIGGVLNINPVQAQGTPYIPPPITPPPLSPSENPFDPSLFPTDPLIPSGETLTPLQRRRLIEALDALEAEALVLDQAGQGDQAFEVRYRSLRGRQRLGDLAEVEALGRIGAIAWEQGRNQDVMAIGQRLEDLQLSLTKDKAMSPELLTAFAKAYGQLHSLDSAIAVYQQMRREAQQQGDYRRENQALSMLGELYLAKFNYPAAAEVYETLLARATNARNSYYEGIYLQKLGEIYQQSAQPDNAIRIKEQLVQRRLQDGKPELVPDIQIAIGDHYLELEQPENASQAYQKAYTLAWSIKQLSTAAIALDKLGDLYLFSEQPNYALQIYKQLLQVQQQSYNYYGMMITYEKIAQLYIDAQQTSAALTAYQQALSLARSLKYSTKENNILNQIQTISGGTGS | failed
2 | MDMKRRIHLELRNRTPAAVRELVLDNCKSNDGKIEGLTAEFVNLEFLSLINVGLISVSNLPKLPKLKKLELSENRIFGGLDMLAEKLPNLTHLNLSGNKLKDISTLEPLKKLECLKSLDLFNCEVTNLNDYRESVFKLLPQLTYLDGYDREDQEAPDSDAEVDGVDEEEEDEEGEDEEDEDDEDGEEEEFDEEDDEDEDVEGDEDDDEVSEEEEEFGLDEEDEDEDEDEEEEEGGKGEKRKRETDDEGEDD | not failed
3 | MKVLVIGNGGREHALAWKAAQSPLVETVFVAPGNAGTALEPALQNVAIGVTDIPALLDFAQNEKIDLTIVGPEAPLVKGVVDTFRAAGLKIFGPTAGAAQLEGSKAFTKDFLARHKIPTAEYQNFTEVEPALAYLREKGAPIVIKADGLAAGKGVIVAMTLEEAEAAVHDMLAGNAFGDAGHRIVIEEFLDGEEASFIVMVDGEHVLPMATSQDHKRVGDKDTGPNTGGMGAYSPAPVVTDDVHQRTMERIIWPTVKGMAAEGNTYTGFLYAGLMIDKQGNPKVIEFNCRFGDPETQPIMLRMKSDLVELCLAACESKLDEKTSEWDERASLGVVMAAGGYPGDYRTGDVIHGLPLEEVAGGKVFHAGTKLADDEQVVTNGGRVLCVTALGHTVAEAQKRAYALMTDIHWDDCFCRKDIGWRAIEREQN | failed
4 | MFGYRSNVPKVRLTTDRLVVRLVHDRDAWRLADYYAENRHFLKPWEPVRDESHCYPSGWQARLGMINEFHKQGSAFYFGLFDPDEKEIIGVANFSNVVRGSFHACYLGYSIGQKWQGKGLMFEALSAAIRYMQRTQHIHRIMANYMPHNKRSGDLLARLGFEKEGYAKDYLLIDGQWRDHVLTALTTPDWTPGR | failed
5 | MEKQSPTALPGTPITDMPAAAETLLALMHAQAEVARLSEREQLFSSLLVSVNAVLWAFDWETQRMIYVSPAYEHIFGRSAGLLLADYSEWRDSIYPDDLNYAERSLSEVIEKGAVEDREYRIIRADGEVRWLSDKCFVSHRADASQRLIVVGIAEDITDKKHLEDELQRLATTDVLTQSSNRRHFFECAQREFELARLNGTPLAFLLLDIDDFKLVNDTYGHQEGDTVLQRIAESGRSALRRGDLFGRIGGEEFAAVFPGCAPEMAMQIAERLQREIQRQNFQANGSTFSITASQGLTNLGPEDQGLEALYGRADAAMYQAKRQGKNQIVLV | failed
6 | MKAVIVYASVHHGNTKKIAEAMASVISADVIDVTRKIKPDLSGYDVIGFASGVYFHTFHERIKKCIEENLFSKGQKVFLVATCGLGYRDYTKGIKDILAKKHVSFIGNFQCRGWDTYGIFGKIGGIAKKHPNDRDLKEAQQFVLKTVCEKTIDDVALLG | failed
7 | MINYPNLPNSALEITEQPEVKEITNELLKQLQNALNSNSLFSEQVELSLKGIVRILEVLLSLDFFKNANEIDSSLRNSIEWLNNAGESLKTKMKEYEGFFSDFNTSMRTNEQEVSATLNANTENIKSEIKKLENQLIETTTRLLTSYQIFLNNARDSANNQITANKTESLEALNQAKTSANNEITANQTQALTNINEAKENANNQITENKTQAITNINEARESATTQITTNKQEVLNSITQEKNQATSEITEAKKSAFNELLETLKPKFSGLFAGAYYIRNVIIFKADGRRKSRI | failed
8 | VLASILLSQAAYESNYGSSLLSVKYHNIYSLPARPGQEHIYLKDNVYSKGKWQYQKVDFAVFRDWSSSMSSYLEELRQGRWGESTYKEVAGTTSYKVAAEKLQAAGFNSDPDYTKHLISIIETYNL | failed
9 | MDPEEEAFDAIRRFARAENINAASVTAIGAFATATLAFFDLKTQDYQEIPVAEQSEVLTLLGDITLDENGVPNPHLHVVLGFADGSTRGGHFLKGLVRPTLEVVIRETPAELRRSYNREFGIALIDPAKLEHHHHHH | not failed

— a protein production outcome set (Wang et al. 2014)
